Results published in the supplement of paper PMC10065799, “High-throughput profiling of sequence recognition by tyrosine kinases and SH2 domains using bacterial peptide display” (eLife, 2023).

Legend:
FGFR3 = FGFR3 (UniProt P22607); assay: phosphorylation enrichment, bacterial display (enrichment ratio); higher = better substrate or ligand; peptides without Tyr show the background
Jak2 = Jak2 (UniProt O60674); assay: as above
Hck = Hck (UniProt P08631); assay: as above
EPHB1 = EPHB1 (UniProt P54762); assay: as above
MERTK = MERTK (UniProt Q12866); assay: as above
Fes = Fes (UniProt P07332); assay: as above
c-Src = assay: as above
AncSZ = assay: as above
Fyn = Fyn (UniProt P06241); assay: as above
FGFR1 = FGFR1 (UniProt P11362); assay: as above
EPHB2 = EPHB2 (UniProt P29323); assay: as above
c-Abl (mouse) = assay: as above
Fer (mouse) = assay: as above
SHP2-C SH2 = assay: SH2 binding enrichment of the phosphorylated peptide, bacterial display (enrichment ratio); higher = better substrate or ligand; peptides without Tyr show the background
c-Src SH2 = assay: as above
Grb2 SH2 = Grb2 SH2 (UniProt P62993); assay: as above
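For SH2 binding enrichment of the phosphorylated peptide, bacterial display in this document: peptide library displayed on the E. coli surface as eCPX fusions, selected cells deep-sequenced, score is each peptide's frequency after selection divided by its frequency in the input.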
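For phosphorylation enrichment, bacterial display in this document: 11-residue human phosphosite peptides and single-mutation variants displayed on the E. coli surface, counted by deep sequencing, each peptide's frequency after selection divided by its frequency in the unselected input library; frequency after pTyr selection over input frequency; kinase dosed for 20-30% of maximal phosphorylation in three min.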

Sequence of Jak2 (O60674 whole entry, looked up): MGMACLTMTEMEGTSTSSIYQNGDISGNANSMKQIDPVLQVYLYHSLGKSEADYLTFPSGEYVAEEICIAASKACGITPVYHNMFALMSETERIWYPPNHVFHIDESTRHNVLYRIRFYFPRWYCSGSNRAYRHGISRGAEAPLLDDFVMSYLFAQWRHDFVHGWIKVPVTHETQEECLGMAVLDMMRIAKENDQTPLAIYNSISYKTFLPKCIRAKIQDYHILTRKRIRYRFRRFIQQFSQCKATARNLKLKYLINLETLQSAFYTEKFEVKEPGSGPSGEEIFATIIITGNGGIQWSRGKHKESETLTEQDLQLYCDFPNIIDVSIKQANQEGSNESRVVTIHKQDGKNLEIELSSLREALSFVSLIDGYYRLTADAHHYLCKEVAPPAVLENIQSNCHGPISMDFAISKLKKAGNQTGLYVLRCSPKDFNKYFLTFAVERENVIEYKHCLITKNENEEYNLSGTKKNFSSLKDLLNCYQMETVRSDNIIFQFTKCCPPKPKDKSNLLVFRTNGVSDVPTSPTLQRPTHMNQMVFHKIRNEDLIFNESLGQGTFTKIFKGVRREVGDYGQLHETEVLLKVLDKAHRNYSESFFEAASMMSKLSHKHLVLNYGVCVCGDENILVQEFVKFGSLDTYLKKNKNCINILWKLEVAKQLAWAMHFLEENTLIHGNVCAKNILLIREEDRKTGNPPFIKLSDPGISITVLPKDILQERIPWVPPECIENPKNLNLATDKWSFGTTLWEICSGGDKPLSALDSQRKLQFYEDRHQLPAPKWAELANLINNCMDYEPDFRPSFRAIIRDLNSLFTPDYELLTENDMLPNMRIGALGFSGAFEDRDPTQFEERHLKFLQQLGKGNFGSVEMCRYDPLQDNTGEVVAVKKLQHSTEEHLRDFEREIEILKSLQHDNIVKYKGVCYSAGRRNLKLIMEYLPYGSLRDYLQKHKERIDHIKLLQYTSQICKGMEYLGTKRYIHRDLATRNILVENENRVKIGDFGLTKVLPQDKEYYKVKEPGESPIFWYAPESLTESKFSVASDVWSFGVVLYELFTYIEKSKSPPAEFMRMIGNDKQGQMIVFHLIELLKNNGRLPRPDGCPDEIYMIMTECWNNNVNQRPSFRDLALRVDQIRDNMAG
Sequence of EPHB1 (P54762 whole entry, looked up): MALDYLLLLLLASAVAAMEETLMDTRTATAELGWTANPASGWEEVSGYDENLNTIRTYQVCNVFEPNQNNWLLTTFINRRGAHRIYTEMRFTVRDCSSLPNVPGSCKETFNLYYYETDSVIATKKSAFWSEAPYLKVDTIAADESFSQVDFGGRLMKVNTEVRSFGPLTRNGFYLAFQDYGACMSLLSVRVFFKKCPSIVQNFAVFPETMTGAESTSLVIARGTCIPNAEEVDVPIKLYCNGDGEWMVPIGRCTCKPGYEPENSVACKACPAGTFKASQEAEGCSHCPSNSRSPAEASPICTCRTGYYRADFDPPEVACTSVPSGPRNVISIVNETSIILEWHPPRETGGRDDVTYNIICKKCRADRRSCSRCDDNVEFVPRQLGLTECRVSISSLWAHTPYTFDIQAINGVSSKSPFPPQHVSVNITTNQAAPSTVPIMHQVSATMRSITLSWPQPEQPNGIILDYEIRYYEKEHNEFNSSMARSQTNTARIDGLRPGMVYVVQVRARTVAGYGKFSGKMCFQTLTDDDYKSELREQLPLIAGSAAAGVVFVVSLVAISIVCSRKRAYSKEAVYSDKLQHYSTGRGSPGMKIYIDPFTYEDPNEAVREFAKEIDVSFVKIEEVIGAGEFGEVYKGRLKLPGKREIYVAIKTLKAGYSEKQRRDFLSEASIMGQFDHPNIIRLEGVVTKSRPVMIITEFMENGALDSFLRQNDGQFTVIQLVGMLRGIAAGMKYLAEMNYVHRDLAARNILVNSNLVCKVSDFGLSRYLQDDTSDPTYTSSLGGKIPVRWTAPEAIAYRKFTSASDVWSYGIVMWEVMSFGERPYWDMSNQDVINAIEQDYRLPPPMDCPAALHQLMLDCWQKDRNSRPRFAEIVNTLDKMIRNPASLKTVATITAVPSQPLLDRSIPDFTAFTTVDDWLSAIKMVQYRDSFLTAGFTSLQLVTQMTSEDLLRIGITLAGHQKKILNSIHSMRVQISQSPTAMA
Sequence of FGFR1 (P11362 whole entry, looked up): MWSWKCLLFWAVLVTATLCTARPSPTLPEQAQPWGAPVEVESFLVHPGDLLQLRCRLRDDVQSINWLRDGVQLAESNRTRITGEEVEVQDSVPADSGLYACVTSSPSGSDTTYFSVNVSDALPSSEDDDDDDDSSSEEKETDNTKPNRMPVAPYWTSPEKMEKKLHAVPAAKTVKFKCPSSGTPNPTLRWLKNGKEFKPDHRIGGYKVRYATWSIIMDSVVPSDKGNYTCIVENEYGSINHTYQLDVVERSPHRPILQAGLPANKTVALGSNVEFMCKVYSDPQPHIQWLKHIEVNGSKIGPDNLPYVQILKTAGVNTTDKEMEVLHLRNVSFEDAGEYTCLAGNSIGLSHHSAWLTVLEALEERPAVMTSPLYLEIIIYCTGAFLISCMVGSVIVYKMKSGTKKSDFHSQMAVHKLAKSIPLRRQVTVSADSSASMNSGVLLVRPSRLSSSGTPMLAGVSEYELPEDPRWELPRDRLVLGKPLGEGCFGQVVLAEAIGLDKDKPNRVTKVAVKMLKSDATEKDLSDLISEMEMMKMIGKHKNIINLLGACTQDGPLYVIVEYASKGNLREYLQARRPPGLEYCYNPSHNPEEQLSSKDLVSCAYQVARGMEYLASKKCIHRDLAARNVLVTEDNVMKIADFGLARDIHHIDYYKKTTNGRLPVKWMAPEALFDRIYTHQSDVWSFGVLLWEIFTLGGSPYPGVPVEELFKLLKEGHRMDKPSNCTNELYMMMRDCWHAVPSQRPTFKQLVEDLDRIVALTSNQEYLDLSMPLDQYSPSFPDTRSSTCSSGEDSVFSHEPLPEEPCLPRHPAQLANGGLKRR
Sequence of Hck (P08631 whole entry, looked up): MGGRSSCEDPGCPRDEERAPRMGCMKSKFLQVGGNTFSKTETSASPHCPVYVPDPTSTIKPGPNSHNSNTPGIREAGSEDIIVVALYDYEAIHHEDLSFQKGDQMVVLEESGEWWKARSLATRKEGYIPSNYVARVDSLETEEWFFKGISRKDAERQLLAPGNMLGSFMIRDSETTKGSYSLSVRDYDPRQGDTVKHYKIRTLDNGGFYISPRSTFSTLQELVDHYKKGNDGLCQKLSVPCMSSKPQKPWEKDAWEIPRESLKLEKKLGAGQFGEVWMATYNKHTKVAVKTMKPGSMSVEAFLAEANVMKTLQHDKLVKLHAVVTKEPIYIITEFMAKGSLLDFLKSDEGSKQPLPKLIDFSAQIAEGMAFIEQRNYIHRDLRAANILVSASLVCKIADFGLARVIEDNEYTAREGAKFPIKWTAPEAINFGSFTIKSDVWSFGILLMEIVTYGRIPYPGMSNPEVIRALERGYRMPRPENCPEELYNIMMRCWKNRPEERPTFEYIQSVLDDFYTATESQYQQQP
Sequence of Fes (P07332 whole entry, looked up): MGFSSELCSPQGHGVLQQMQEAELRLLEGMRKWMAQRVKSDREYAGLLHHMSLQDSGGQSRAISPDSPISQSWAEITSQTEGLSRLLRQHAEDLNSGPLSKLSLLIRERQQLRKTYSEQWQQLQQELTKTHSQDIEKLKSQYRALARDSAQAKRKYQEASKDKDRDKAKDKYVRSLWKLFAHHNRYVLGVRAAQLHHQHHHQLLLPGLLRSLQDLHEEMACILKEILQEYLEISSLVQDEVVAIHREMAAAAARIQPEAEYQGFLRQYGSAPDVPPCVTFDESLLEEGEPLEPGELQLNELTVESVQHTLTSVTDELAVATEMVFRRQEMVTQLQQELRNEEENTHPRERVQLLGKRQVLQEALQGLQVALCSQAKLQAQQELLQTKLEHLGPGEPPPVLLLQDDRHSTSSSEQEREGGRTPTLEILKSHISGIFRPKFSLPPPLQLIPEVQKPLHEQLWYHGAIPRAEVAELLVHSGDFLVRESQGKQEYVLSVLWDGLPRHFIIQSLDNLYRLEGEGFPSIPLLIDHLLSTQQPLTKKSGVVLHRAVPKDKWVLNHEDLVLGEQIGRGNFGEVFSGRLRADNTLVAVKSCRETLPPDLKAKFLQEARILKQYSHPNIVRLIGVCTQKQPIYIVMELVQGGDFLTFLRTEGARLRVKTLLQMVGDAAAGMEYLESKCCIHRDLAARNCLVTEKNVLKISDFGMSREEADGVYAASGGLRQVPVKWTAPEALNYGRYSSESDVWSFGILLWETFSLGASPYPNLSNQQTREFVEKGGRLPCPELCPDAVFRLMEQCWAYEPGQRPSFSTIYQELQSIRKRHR
Sequence of FGFR3 (P22607 whole entry, looked up): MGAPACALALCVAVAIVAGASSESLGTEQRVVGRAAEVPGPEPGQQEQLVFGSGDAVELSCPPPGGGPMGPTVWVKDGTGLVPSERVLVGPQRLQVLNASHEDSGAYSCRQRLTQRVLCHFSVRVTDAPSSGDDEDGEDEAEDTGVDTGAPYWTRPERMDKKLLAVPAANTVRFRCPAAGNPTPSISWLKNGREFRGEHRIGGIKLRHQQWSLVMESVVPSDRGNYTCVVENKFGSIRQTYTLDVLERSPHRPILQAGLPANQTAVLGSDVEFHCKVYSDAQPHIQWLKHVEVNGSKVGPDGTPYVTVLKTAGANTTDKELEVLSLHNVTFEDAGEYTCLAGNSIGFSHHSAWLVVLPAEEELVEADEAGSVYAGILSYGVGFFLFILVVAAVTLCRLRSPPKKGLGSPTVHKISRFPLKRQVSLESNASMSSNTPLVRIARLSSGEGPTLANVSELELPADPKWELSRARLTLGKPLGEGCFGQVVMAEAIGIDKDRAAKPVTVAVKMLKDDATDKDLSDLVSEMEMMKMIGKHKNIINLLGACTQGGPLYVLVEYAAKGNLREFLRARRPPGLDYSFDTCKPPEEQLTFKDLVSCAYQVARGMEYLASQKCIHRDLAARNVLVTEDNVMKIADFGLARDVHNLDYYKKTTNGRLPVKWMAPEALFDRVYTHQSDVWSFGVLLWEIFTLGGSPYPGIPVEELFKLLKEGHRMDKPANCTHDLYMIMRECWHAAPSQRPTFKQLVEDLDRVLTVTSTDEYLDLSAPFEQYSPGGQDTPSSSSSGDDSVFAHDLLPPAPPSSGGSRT

| Sequence | SH2 binding enrichment (SHP2-C SH2) | SH2 binding enrichment (c-Src SH2) | SH2 binding enrichment (Grb2 SH2) | phosphorylation enrichment (FGFR3) | phosphorylation enrichment (Jak2) | phosphorylation enrichment (Hck) | phosphorylation enrichment (EPHB1) | phosphorylation enrichment (MERTK) | phosphorylation enrichment (Fes) | phosphorylation enrichment (c-Src) | phosphorylation enrichment (AncSZ) | phosphorylation enrichment (Fyn) | phosphorylation enrichment (FGFR1) | phosphorylation enrichment (EPHB2) | phosphorylation enrichment (c-Abl (mouse)) | phosphorylation enrichment (Fer (mouse)) |
| --- | --- | --- | --- | --- | --- | --- | --- | --- | --- | --- | --- | --- | --- | --- | --- | --- |
| LERDIYNREEF [HLA-DPB1_Y59_Y57D] | 1.07 | 0.678 | 0.841 | 0.906 | 1.3 | 1.17 | 0.706 | 0.49 | 1.62 | 1.18 | 1.19 | 1.23 | 1.03 | 0.718 | 1.39 | 0.672 |
| PFTRNYYVQAV [CYBA_Y87_R90Q] | 3.28 | 1.19 | 0.981 | 1.9 | 1.17 | 0.446 | 0.787 | 1.25 | 1.1 | 0.615 | 1.03 | 0.46 | 1.99 | 0.706 | 1.12 | 0.555 |
| PARLEYYENEK [IRS1_Y46] | 1.35 | 18.6 | 3.84 | 0.882 | 1.17 | 0.48 | 0.613 | 0.547 | 1.26 | 0.711 | 1.26 | 0.732 | 0.533 | 0.723 | 0.725 | 0.25 |
| MMVGAYSSLEG [ECPAS_Y470_T472S] | 0.77 | 7.6 | 0.82 | 0.515 | 0.563 | 0.832 | 0.469 | 1.97 | 0.754 | 0.671 | 0.631 | 0.533 | 0.514 | 0.434 | 0.785 | 0.528 |
| SRGRQYQELPR [KCNH2_Y1009] | 0.565 | 1.29 | 0.925 | 0.423 | 0.455 | 0.527 | 0.316 | 0.36 | 0.462 | 0.441 | 0.512 | 0.317 | 0.4 | 0.347 | 0.463 | 0.349 |
| RGRSTYFWPRP [GAGE12J_Y9_YF] | 0.704 | 0.489 | 0.456 | 1.06 | 0.838 | 0.636 | 0.875 | 1.3 | 1.02 | 0.999 | 1.15 | 0.641 | 0.93 | 0.652 | 1.17 | 1.11 |
| GLAKEYIDPET [CSNK1G2_Y195] | 0.967 | 0.448 | 0.942 | 0.604 | 0.904 | 0.449 | 0.527 | 0.4 | 0.941 | 0.454 | 0.743 | 0.494 | 0.544 | 0.462 | 0.592 | 0.509 |
| FEGAIYRKDVG [GART_Y417] | 0.582 | 0.451 | 0.664 | 0.539 | 0.467 | 0.514 | 0.332 | 0.288 | 0.707 | 0.393 | 0.645 | 0.405 | 0.347 | 0.312 | 0.457 | 0.662 |
| VASSLYDILAR [GLB1_Y294] | 0.67 | 0.78 | 0.567 | 0.557 | 1.24 | 8.2 | 1.16 | 8.38 | 1.05 | 2.84 | 1.02 | 1.77 | 0.37 | 1.01 | 0.763 | 1.96 |
| HIPFRYPKEFQ [IDS_Y234] | 1.12 | 0.862 | 1.1 | 0.66 | 0.815 | 0.564 | 0.521 | 0.645 | 1.26 | 0.756 | 0.826 | 0.424 | 0.442 | 0.641 | 0.946 | 0.344 |
| VGSIKYLKREW [KCNMA1_Y885_E884K] | 0.723 | 0.802 | 1.16 | 0.431 | 0.61 | 0.446 | 0.56 | 0.311 | 0.754 | 0.38 | 0.68 | 0.395 | 0.412 | 0.505 | 0.482 | 0.465 |
| FPQARYHWLVL [APTX_Y214_K211Q_YF] | 1.47 | 1.13 | 1.25 | 1.48 | 1.28 | 0.543 | 0.568 | 1.24 | 1.22 | 0.522 | 0.913 | 0.459 | 1.92 | 0.597 | 0.858 | 0.539 |
| QFNPEYVQQAS [LRRC7_Y1058_H1054Y_YF] | 0.642 | 0.458 | 0.871 | 0.761 | 1.3 | 0.792 | 1.02 | 0.638 | 1.46 | 0.518 | 1.79 | 0.687 | 0.741 | 0.778 | 0.904 | 0.648 |
| RSAGKYDVFLI [MECP2_Y120_YF] | 0.677 | 0.914 | 1.03 | 0.748 | 0.775 | 0.714 | 0.697 | 0.561 | 0.758 | 0.533 | 0.558 | 0.556 | 0.352 | 0.563 | 0.85 | 0.618 |
| AVRFIYTIDGS [DCX_Y105_G100A_YF] | 0.988 | 0.723 | 0.928 | 0.697 | 1.27 | 0.67 | 0.574 | 0.424 | 1.28 | 1.55 | 1.32 | 1.56 | 0.453 | 0.552 | 0.706 | 0.529 |
| FLAVGYHQPHI [IDS_Y225_K227Q] | 1.25 | 1.55 | 0.879 | 0.514 | 0.447 | 0.405 | 0.448 | 0.298 | 0.593 | 0.297 | 0.559 | 0.418 | 0.391 | 0.415 | 0.57 | 0.35 |

Now from value to sequence, other results behind:

| SH2 binding enrichment (SHP2-C SH2) | SH2 binding enrichment (c-Src SH2) | SH2 binding enrichment (Grb2 SH2) | Sequence | phosphorylation enrichment (FGFR3) | phosphorylation enrichment (Jak2) | phosphorylation enrichment (Hck) | phosphorylation enrichment (EPHB1) | phosphorylation enrichment (MERTK) | phosphorylation enrichment (Fes) | phosphorylation enrichment (c-Src) | phosphorylation enrichment (AncSZ) | phosphorylation enrichment (Fyn) | phosphorylation enrichment (FGFR1) | phosphorylation enrichment (EPHB2) | phosphorylation enrichment (c-Abl (mouse)) | phosphorylation enrichment (Fer (mouse)) |
| --- | --- | --- | --- | --- | --- | --- | --- | --- | --- | --- | --- | --- | --- | --- | --- | --- |
| 0.423 | 0.431 | 0.705 | FNDSAYNQQLI [ZPLD1_Y198_T197A_YF] | 0.451 | 0.5 | 0.455 | 0.489 | 0.297 | 0.672 | 0.421 | 0.641 | 0.393 | 0.338 | 0.383 | 0.485 | 0.326 |
| 0.832 | 0.802 | 1.07 | GRTNIYKNKKD [SLC26A3_Y520] | 0.475 | 0.66 | 0.447 | 0.415 | 0.43 | 0.648 | 0.434 | 0.467 | 0.308 | 0.369 | 0.393 | 0.721 | 0.349 |
| 0.693 | 5.15 | 0.772 | HIKHNYECLVY [XRCC5_Y416] | 0.839 | 0.935 | 0.638 | 2.87 | 0.548 | 1.05 | 1.78 | 1.05 | 0.868 | 0.924 | 2.44 | 0.882 | 0.514 |
| 0.594 | 0.622 | 0.965 | ATRKAYGQALA [TKT_Y321] | 0.395 | 0.481 | 0.412 | 0.31 | 0.432 | 0.612 | 0.366 | 0.468 | 0.335 | 0.391 | 0.348 | 0.415 | 0.36 |
| 0.697 | 0.494 | 0.705 | DSDTDYGSGFP [RNASEH2A_Y206_L202S_YF] | 0.605 | 0.905 | 0.566 | 0.545 | 0.455 | 1.01 | 0.494 | 1.1 | 0.429 | 0.418 | 0.557 | 0.755 | 0.492 |
| 0.685 | 0.41 | 0.584 | QEALEYFMKQT [PIK3CA_Y1038_M1043T] | 2.76 | 3.01 | 1.05 | 1.31 | 0.813 | 3.76 | 1.6 | 3.3 | 1.93 | 1.67 | 1.64 | 1.85 | 1.82 |
| 0.792 | 0.937 | 0.906 | YKRAVYCIIGR [NUP93_Y391] | 0.563 | 0.599 | 0.755 | 0.506 | 0.849 | 0.785 | 0.626 | 0.746 | 0.59 | 0.429 | 0.464 | 0.563 | 0.505 |
| 0.469 | 0.59 | 0.681 | RGKDNYETSQL [SPP1_Y225_S224N] | 0.634 | 0.74 | 0.56 | 0.662 | 0.689 | 0.773 | 0.681 | 0.857 | 0.549 | 0.565 | 0.628 | 0.62 | 0.541 |
| 0.764 | 0.755 | 1.02 | SFCFRYCCAAR [SUMF1_Y344_R345C_YF] | 0.723 | 1.02 | 0.436 | 0.659 | 0.445 | 1.23 | 0.397 | 1.25 | 0.487 | 0.504 | 0.611 | 0.7 | 0.517 |
| 0.917 | 0.593 | 0.779 | RSRSSYTHGLN [MYCT1_Y116] | 0.88 | 0.916 | 0.935 | 1 | 0.883 | 1.35 | 1.23 | 1.42 | 0.956 | 0.588 | 0.882 | 0.981 | 0.705 |
| 0.627 | 0.481 | 0.774 | DENWFYMRAAS [RPS19_Y54_T55M] | 0.933 | 1.25 | 0.485 | 0.718 | 0.379 | 1.52 | 0.384 | 1.35 | 0.43 | 0.654 | 0.654 | 0.869 | 0.594 |
| 0.798 | 0.534 | 1.01 | VGQRPYQPLPE [REEP3_Y170] | 0.525 | 0.505 | 0.36 | 0.38 | 0.406 | 0.649 | 0.393 | 0.617 | 0.375 | 0.47 | 0.424 | 0.547 | 0.336 |
| 0.377 | 0.581 | 0.847 | RPFFLYVAFHD [SGSH_Y174] | 0.941 | 1.54 | 0.58 | 0.731 | 0.442 | 1.58 | 0.43 | 1.28 | 0.381 | 0.503 | 0.579 | 1.24 | 0.47 |
